One data set deals with T1, CYP1A1 (Homo sapiens, UniProt P04798).
T1 construct: endogenous CYP1A1 in human tissue microsomes, A549 and SKOV3 cells
T1 sequence (P04798 1-512): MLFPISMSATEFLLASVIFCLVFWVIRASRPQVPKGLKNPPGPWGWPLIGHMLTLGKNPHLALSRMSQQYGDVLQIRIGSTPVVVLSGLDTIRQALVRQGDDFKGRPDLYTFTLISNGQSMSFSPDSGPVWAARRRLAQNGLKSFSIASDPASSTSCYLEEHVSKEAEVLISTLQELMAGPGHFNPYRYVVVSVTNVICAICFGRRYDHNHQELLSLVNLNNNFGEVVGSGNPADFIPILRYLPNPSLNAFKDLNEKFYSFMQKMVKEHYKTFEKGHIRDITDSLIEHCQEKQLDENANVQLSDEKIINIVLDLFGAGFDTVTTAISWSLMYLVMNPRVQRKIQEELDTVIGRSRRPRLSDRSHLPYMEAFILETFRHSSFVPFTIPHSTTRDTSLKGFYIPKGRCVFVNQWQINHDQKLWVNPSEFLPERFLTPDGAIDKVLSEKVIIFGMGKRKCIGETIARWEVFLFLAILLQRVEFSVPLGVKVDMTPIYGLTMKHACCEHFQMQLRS
Briefly: inhibition of NBCeN-O-dechloroethylation in human tissue preparations and living cells ([…] in cells). Format: cell-based.

Substrate in the data set “purified protein”: CCCCN1C(=O)c2cccc3c(OCCCl)ccc(c23)C1=O
In words: purified protein. Format: biochemical, Homo sapiens. Conditions: heme.

For the molecule `Oc1ccc(/C=C/c2cc(O)cc(O)c2)cc1` [resveratrol], on CYP1A1, the “inhibition of NBCeN-O-dechloroethylation in human tissue preparations and living” value was “formation of NBHN could be potently inhibited by ABT (a broad CYP inhibitor) and resveratrol (a selective inhibitor of CYP1A1)”.

B1: CYP1A2 (Homo sapiens) (protein)
chain: ALSQSVPFSATELLLASAIFCLVFWVLKGLRPRVPKGLKSPPEPWGWPLLGHVLTLGKNPHLALSRMSQRYGDVLQIRIGSTPVLVLSRLDTIRQALVRQGDDFKGRPDLYTSTLITDGQSLTFSTDSGPVWAARRRLAQNALNTFSIASDPASSSSCYLEEHVSKEAKALISRLQELMAGPGHFDPYNQVVVSVANVIGAMCFGQHFPESSDEMLSLVKNTHEFVETASSGNPLDFFPILRYLPNPALQRFKAFNQRFLWFLQKTVQEHYQDFDKNSVRDITGALFKHSKKGPRASGNLIPQEKIVNLVNDIFGAGFDTVTTAISWSLMYLVTKPEIQRKIQKELDTVIGRERRPRLSDRPQLPYLEAFILETFRHSSFLPFTIPHSTTRDTTLNGFYIPKKCCVFVNQWQVNHDPELWEDPSEFRPERFLTADGTAINKPLSEKMMLFGMGKRRCIGEVLAKWEIFLFLAILLQQLEFSVPPGVKVDLTPIYGLTMKHARCEHVQARLRFSIN
notes: recombinant CYP1A2
Broadly, the Km is the concentration of substrate that gives half-maximal velocity. For the molecule B1, in the data set “purified protein” (NADPH), the Michaelis constant (Km) turned out to be 0.81 µM.

B2: CYP1A1 (Homo sapiens) (protein)
chain: T1 sequence (P04798 1-512)
notes: recombinant CYP1A1
On to B2, for which, in “purified protein” (NADPH active site, O-chloroethyl group cleaved, docking suggests pi-pi stacking with Phe-224), the Km stood at 0.84 µM.

These data come from paper PMC5426458, “A practical strategy to design and develop an isoform-specific fluorescent probe for a target enzyme: CYP1A1 as a case study” (Chemical Science, 2016).
